Data: patent US20170029894A1 (Novartis, published 2017)

Legend:
Test in all cases: peptide array of 15-mer IL-13 peptides
[1] = target: IL-13 peptide 12 (…) (human)
[2] = target: IL-13 peptide 3 (…) (human)
[3] = target: IL-13 peptide 18 (…) (human)
[4] = target: IL-13 peptide 16 (…) (human)
[5] = target: IL-13 peptide 30 (…) (human)
[6] = target: IL-13 peptide 19 (…) (human)
[7] = target: IL-13 peptide 26 (…) (human)
[8] = target: IL-13 peptide 2 (…) (human)
[9] = target: IL-13 peptide 25 (…) (human)
[10] = target: IL-13 peptide 17 (…) (human)
[11] = target: IL-13 peptide 27 (…) (human)
[12] = target: IL-13 peptide 14 (…) (human)
[13] = target: IL-13 peptide 13 (…) (human)
[14] = target: IL-13 peptide 1 (…) (human)
[15] = target: IL-13 peptide 24 (…) (human)
[16] = target: IL-13 peptide 15 (…) (human)
[17] = target: IL-13 peptide 11 (…) (human)
[18] = target: IL-13 peptide 29 (…) (human)
[19] = target: IL-13 peptide 28 (…) (human)
[20] = target: IL-13 peptide 23 (…) (human)
[21] = target: IL-13 peptide 22 (…) (human)
[22] = target: IL-13 peptide 20 (…) (human)
[23] = target: IL-13 peptide 10 (…) (human)
[24] = target: IL-13 peptide 21 (…) (human)
[25] = target: T1, IL-13 peptide 34 (LLLHLKKLFREGRFN) (human)
T1 peptide: LLLHLKKLFREGRFN
Protocol: (§1) The sequence of IL-13 was probed at the peptide level to identify the binding site with ANTIBODY 01951/G12. Thirty four 15-mer peptides were synthesized in order to scan the entire sequence with 12 residue overlap starting from the N-terminus. The synthesis of the peptides, preparation of the peptide-array slides, incubation with antibodies and data analysis where done as described by Maksimov et al. (PLoS ONE 7(3): e34212).
(§2) The binding signal intensity (light unit) observed is reported for each peptide, in column 1 against a control unrelated human antibody and in column 2 against ANTIBODY 01951/G12. Signals above 10000 Light Units are considered as being significant. 2 overlapping peptides in the set of the 34 peptides produced a signal above that threshold, peptide 22 ([…]) (SEQ ID NO: 31) and peptide 23 ([…]) (SEQ ID NO: 32). The overlapping sequence between both peptides is […] (SEQ ID NO: 33).

[26] = target: T2, IL-13 peptide 10 (PLCNGSMVWSINLTA) (human)
T2 peptide: PLCNGSMVWSINLTA
Protocol: as §1, §2

[27] = target: T3, IL-13 peptide 13 (SINLTAGMYCAALES) (human)
T3 peptide: SINLTAGMYCAALES
Protocol: as §1, §2

[28] = target: T4, IL-13 peptide 14 (LTAGMYCAALESLIN) (human)
T4 peptide: LTAGMYCAALESLIN
Protocol: as §1, §2

[29] = target: T5, IL-13 peptide 8 (TQNQKAPLCNGSMVW) (human)
T5 peptide: TQNQKAPLCNGSMVW
Protocol: as §1, §2

[30] = target: T6, IL-13 peptide 22 (TQRMLSGFCPHKVSA) (human)
T6 peptide: TQRMLSGFCPHKVSA
Protocol: as §1, §2

[31] = target: T7, IL-13 peptide 27 (GQFSSLHVRDTKIEV) (human)
T7 peptide: GQFSSLHVRDTKIEV
Protocol: as §1, §2

[32] = target: T8, IL-13 peptide 12 (MVWSINLTAGMYCAA) (human)
T8 peptide: MVWSINLTAGMYCAA
Protocol: as §1, §2

[33] = target: T9, IL-13 peptide 6 (EELVNITQNQKAPLC) (human)
T9 peptide: EELVNITQNQKAPLC
Protocol: as §1, §2

[34] = target: T10, IL-13 peptide 23 (MLSGFCPHKVSAGQF) (human)
T10 peptide: MLSGFCPHKVSAGQF
Protocol: as §1, §2

[35] = target: T11, IL-13 peptide 19 (VSGCSAIEKTQRMLS) (human)
T11 peptide: VSGCSAIEKTQRMLS
Protocol: as §1, §2

[36] = target: T12, IL-13 peptide 17 (LESLINVSGCSAIEK) (human)
T12 peptide: LESLINVSGCSAIEK
Protocol: as §1, §2

[37] = target: T13, IL-13 peptide 2 (PVPPSTALRELIEEL) (human)
T13 peptide: PVPPSTALRELIEEL
Protocol: as §1, §2

[38] = target: T14, IL-13 peptide 15 (GMYCAALESLINVSG) (human)
T14 peptide: GMYCAALESLINVSG
Protocol: as §1, §2

[39] = target: T15, IL-13 peptide 31 (IEVAQFVKDLLLHLK) (human)
T15 peptide: IEVAQFVKDLLLHLK
Protocol: as §1, §2

[40] = target: T16, IL-13 peptide 20 (CSAIEKTQRMLSGFC) (human)
T16 peptide: CSAIEKTQRMLSGFC
Protocol: as §1, §2

[41] = target: T17, IL-13 peptide 30 (DTKIEVAQFVKDLLL) (human)
T17 peptide: DTKIEVAQFVKDLLL
Protocol: as §1, §2

[42] = target: T18, IL-13 peptide 5 (ELIEELVNITQNQKA) (human)
T18 peptide: ELIEELVNITQNQKA
Protocol: as §1, §2

[43] = target: T19, IL-13 peptide 9 (QKAPLCNGSMVWSIN) (human)
T19 peptide: QKAPLCNGSMVWSIN
Protocol: as §1, §2

[44] = target: T20, IL-13 peptide 3 (PSTALRELIEELVNI) (human)
T20 peptide: PSTALRELIEELVNI
Protocol: as §1, §2

[45] = target: T21, IL-13 peptide 29 (HVRDTKIEVAQFVKD) (human)
T21 peptide: HVRDTKIEVAQFVKD
Protocol: as §1, §2

[46] = target: T22, IL-13 peptide 32 (AQFVKDLLLHLKKLF) (human)
T22 peptide: AQFVKDLLLHLKKLF
Protocol: as §1, §2

[47] = target: T23, IL-13 peptide 1 (SPGPVPPSTALRELI) (human)
T23 peptide: SPGPVPPSTALRELI
Protocol: as §1, §2

[48] = target: T24, IL-13 peptide 26 (VSAGQFSSLHVRDTK) (human)
T24 peptide: VSAGQFSSLHVRDTK
Protocol: as §1, §2

[49] = target: T25, IL-13 peptide 21 (IEKTQRMLSGFCPHK) (human)
T25 peptide: IEKTQRMLSGFCPHK
Protocol: as §1, §2

[50] = target: T26, IL-13 peptide 11 (NGSMVWSINLTAGMY) (human)
T26 peptide: NGSMVWSINLTAGMY
Protocol: as §1, §2

[51] = target: T27, IL-13 peptide 16 (CAALESLINVSGCSA) (human)
T27 peptide: CAALESLINVSGCSA
Protocol: as §1, §2

[52] = target: T28, IL-13 peptide 28 (SSLHVRDTKIEVAQF) (human)
T28 peptide: SSLHVRDTKIEVAQF
Protocol: as §1, §2

[53] = target: T29, IL-13 peptide 25 (PHKVSAGQFSSLHVR) (human)
T29 peptide: PHKVSAGQFSSLHVR
Protocol: as §1, §2

[54] = target: T30, IL-13 peptide 7 (VNITQNQKAPLCNGS) (human)
T30 peptide: VNITQNQKAPLCNGS
Protocol: as §1, §2

[55] = target: T31, IL-13 peptide 33 (VKDLLLHLKKLFREG) (human)
T31 peptide: VKDLLLHLKKLFREG
Protocol: as §1, §2

[56] = target: T32, IL-13 peptide 4 (ALRELIEELVNITQN) (human)
T32 peptide: ALRELIEELVNITQN
Protocol: as §1, §2

[57] = target: T33, IL-13 peptide 18 (LINVSGCSAIEKTQR) (human)
T33 peptide: LINVSGCSAIEKTQR
Protocol: as §1, §2

Molecule: control unrelated human antibody
- Corrected Mean signal intensity (Light Unit) [1]: 19 Light Unit
- Corrected Mean signal intensity (Light Unit) [2]: -7.3 Light Unit
- Corrected Mean signal intensity (Light Unit) [3]: 12.5 Light Unit
- Corrected Mean signal intensity (Light Unit) [4]: 1 Light Unit
- Corrected Mean signal intensity (Light Unit) [5]: -13 Light Unit
- Corrected Mean signal intensity (Light Unit) [6]: 15 Light Unit
- Corrected Mean signal intensity (Light Unit) [7]: 3.7 Light Unit
- Corrected Mean signal intensity (Light Unit) [8]: -9 Light Unit
- Corrected Mean signal intensity (Light Unit) [9]: -24.7 Light Unit
- Corrected Mean signal intensity (Light Unit) [10]: 18.7 Light Unit
- Corrected Mean signal intensity (Light Unit) [11]: -10.5 Light Unit
- Corrected Mean signal intensity (Light Unit) [12]: 1 Light Unit
- Corrected Mean signal intensity (Light Unit) [13]: -1.5 Light Unit
- Corrected Mean signal intensity (Light Unit) [14]: 44.3 Light Unit
- Corrected Mean signal intensity (Light Unit) [15]: 3.3 Light Unit
- Corrected Mean signal intensity (Light Unit) [16]: 1 Light Unit
- Corrected Mean signal intensity (Light Unit) [17]: -5 Light Unit
- Corrected Mean signal intensity (Light Unit) [18]: -17 Light Unit
- Corrected Mean signal intensity (Light Unit) [19]: -6 Light Unit
- Corrected Mean signal intensity (Light Unit) [20]: 23 Light Unit
- Corrected Mean signal intensity (Light Unit) [21]: 123 Light Unit
- Corrected Mean signal intensity (Light Unit) [22]: 26 Light Unit
- Corrected Mean signal intensity (Light Unit) [23]: -6.5 Light Unit
- Corrected Mean signal intensity (Light Unit) [24]: 101 Light Unit

B1: ANTIBODY 01951/G12 (antibody, human IgG1, kappa, V domains shown)
VH: EVQLVESGGGVVQPGRSLRLSCAASGFTFSSYGMHWVRQAPGKGLEWVAIIWYDGSNKYYADSVKGRFTISRDNSKNTLYLQMNSLRAEDTAVYYCARLWFGDLDAFDIWGQGTMVTVSS
VL: EIVLTQSPATLSLSPGERAILSCRAGQSVSSYLVWYQQKPGQAPRLLIYDASNRATGIPARFSGSGSGTDFTLTISSLEPEDFAVYYCQQRSSWPPVYTFGQGTKLEIKR
notes: also called target antibody
- Corrected Mean signal intensity (Light Unit) [25]: 7150 Light Unit
- Corrected Mean signal intensity (Light Unit) [26]: -982 Light Unit
- Corrected Mean signal intensity (Light Unit) [27]: -757 Light Unit
- Corrected Mean signal intensity (Light Unit) [28]: -99.7 Light Unit
- Corrected Mean signal intensity (Light Unit) [29]: -350 Light Unit
- Corrected Mean signal intensity (Light Unit) [30]: 38600 Light Unit
- Corrected Mean signal intensity (Light Unit) [31]: -291 Light Unit
- Corrected Mean signal intensity (Light Unit) [32]: 56.5 Light Unit
- binding result [32]: no binding (tested: 10000 Light Units)
- Corrected Mean signal intensity (Light Unit) [33]: 1 Light Unit
- binding result [33]: no binding (tested: 10000 Light Units)
- Corrected Mean signal intensity (Light Unit) [34]: 48100 Light Unit
- Corrected Mean signal intensity (Light Unit) [35]: -830 Light Unit
- Corrected Mean signal intensity (Light Unit) [36]: -340 Light Unit
- Corrected Mean signal intensity (Light Unit) [37]: -1130 Light Unit
- Corrected Mean signal intensity (Light Unit) [38]: -987 Light Unit
- Corrected Mean signal intensity (Light Unit) [39]: -810 Light Unit
- Corrected Mean signal intensity (Light Unit) [40]: -721 Light Unit
- Corrected Mean signal intensity (Light Unit) [41]: -438 Light Unit
- Corrected Mean signal intensity (Light Unit) [42]: -131 Light Unit
- Corrected Mean signal intensity (Light Unit) [43]: -518 Light Unit
- Corrected Mean signal intensity (Light Unit) [44]: -210 Light Unit
- Corrected Mean signal intensity (Light Unit) [45]: -734 Light Unit
- Corrected Mean signal intensity (Light Unit) [46]: -746 Light Unit
- Corrected Mean signal intensity (Light Unit) [47]: -1070 Light Unit
- Corrected Mean signal intensity (Light Unit) [48]: -778 Light Unit
- Corrected Mean signal intensity (Light Unit) [49]: 2210 Light Unit
- Corrected Mean signal intensity (Light Unit) [50]: -132 Light Unit
- Corrected Mean signal intensity (Light Unit) [51]: -587 Light Unit
- Corrected Mean signal intensity (Light Unit) [52]: -170 Light Unit
- Corrected Mean signal intensity (Light Unit) [53]: -386 Light Unit
- Corrected Mean signal intensity (Light Unit) [54]: -405 Light Unit
- Corrected Mean signal intensity (Light Unit) [55]: -203 Light Unit
- Corrected Mean signal intensity (Light Unit) [56]: -207 Light Unit
- Corrected Mean signal intensity (Light Unit) [57]: -539 Light Unit
- Corrected Mean signal intensity (Light Unit) [15]: 493 Light Unit
